From patent US20060257938A1, “Method of screening for drugs that block ligand binding to a lipid binding protein” (priority 2005, published 2006)

What was measured:
Assay type in all cases: binding
[1] = Probe fluorescence ratio response to linoleic acid relative to ADIFAB2; conditions: response relative to ADIFAB2
Summary of the method: (§1)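 Each fatty acid's response was expressed relative to ADIFAB2, the rI-FABP-L72A probe, as ΔR/ΔRreference. ΔR is the change in the background-corrected two-wavelength intensity ratio R=Fλ1/Fλ2 from its analyte-free baseline R0. Emission was read near about 420-480 nm for unbound and about 495-580 nm for FFA-bound probe.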

[2] = Probe fluorescence ratio response to linolenic acid relative to ADIFAB2; conditions: response relative to ADIFAB2
Summary of the method: as §1

[3] = Probe fluorescence ratio response to arachidonic acid relative to ADIFAB2; conditions: Arachidonic acid; response relative to ADIFAB2
Summary of the method: as §1

[4] = Probe fluorescence ratio response to oleic acid relative to ADIFAB2; conditions: response relative to ADIFAB2
Summary of the method: as §1

[5] = Probe fluorescence ratio response to palmitic acid relative to ADIFAB2; conditions: response relative to ADIFAB2
Summary of the method: as §1

B1: 38W1, 72A (protein, listed as Rattus norvegicus)
chain: AFDGTWKVDRNENYEKFMEKMGINVVKRKLGAHDNLKWTITQEGNKFTVKESSNFRNIDVVFELGVDFAYSAADGTELTGTWTMEGNKLVGKFKRVDNGKELIAVREISGNELIQTYTYEGVEAKRIFKKE
modifications: PEPTIDE (1)...(131) wild-type rat intestinal fatty acid binding protein
[1]
  DR/DR LA: 2.41
[2]
  DR/DR LNA: 1.34
[3]
  DR/DR AA: 1.35
[4]
  DR/DR OA: 1.58
[5]
  DR/DR PA: 1.55

B2: 47A1, L72A (protein, listed as Rattus norvegicus)
chain: AFDGTWKVDRNENYEKFMEKMGINVVKRKLGAHDNLKLTITQEGNKATVKESSNFRNIDVVFELGVDFAYSAADGTELTGTWTMEGNKLVGKFKRVDNGKELIAVREISGNELIQTYTYEGVEAKRIFKKE
modifications: PEPTIDE (1)...(131) wild-type rat intestinal fatty acid binding protein
[1]
  DR/DR LA: 0.58
[2]
  DR/DR LNA: 0.57
[3]
  DR/DR AA: 0.54
[4]
  DR/DR OA: 0.59
[5]
  DR/DR PA: 0.30

B3: 40Y3, L72A (protein, listed as Rattus norvegicus)
chain: AFDGTWKVDRNENYEKFMEKMGINVVKRKLGAHDNLKLTYTQEGNKFTVKESSNFRNIDVVFELGVDFAYSAADGTELTGTWTMEGNKLVGKFKRVDNGKELIAVREISGNELIQTYTYEGVEAKRIFKKE
modifications: PEPTIDE (1)...(131) wild-type rat intestinal fatty acid binding protein
[1]
  DR/DR LA: 0.50
[2]
  DR/DR LNA: 0.49
[3]
  DR/DR AA: 0.89
[4]
  DR/DR OA: 0.48
[5]
  DR/DR PA: 0.29

B4: 40V1, L72A (protein, listed as Rattus norvegicus)
chain: AFDGTWKVDRNENYEKFMEKMGINVVKRKLGAHDNLKLTVTQEGNKFTVKESSNFRNIDVVFELGVDFAYSAADGTELTGTWTMEGNKLVGKFKRVDNGKELIAVREISGNELIQTYTYEGVEAKRIFKKE
modifications: PEPTIDE (1)...(131) wild-type rat intestinal fatty acid binding protein
[1]
  DR/DR LA: 1.24
[2]
  DR/DR LNA: 1.28
[3]
  DR/DR AA: 1.20
[4]
  DR/DR OA: 1.21
[5]
  DR/DR PA: 0.91

B5: 38Y1, 72A (protein, listed as Rattus norvegicus)
chain: AFDGTWKVDRNENYEKFMEKMGINVVKRKLGAHDNLKYTITQEGNKFTVKESSNFRNIDVVFELGVDFAYSAADGTELTGTWTMEGNKLVGKFKRVDNGKELIAVREISGNELIQTYTYEGVEAKRIFKKE
modifications: PEPTIDE (1)...(131) wild-type rat intestinal fatty acid binding protein
[1]
  DR/DR LA: 1.82
[2]
  DR/DR LNA: 1.88
[3]
  DR/DR AA: 2.08
[4]
  DR/DR OA: 1.72
[5]
  DR/DR PA: 1.52

B6: 40F2, L72A (protein, listed as Rattus norvegicus)
chain: AFDGTWKVDRNENYEKFMEKMGINVVKRKLGAHDNLKLTFTQEGNKFTVKESSNFRNIDVVFELGVDFAYSAADGTELTGTWTMEGNKLVGKFKRVDNGKELIAVREISGNELIQTYTYEGVEAKRIFKKE
modifications: PEPTIDE (1)...(131) wild-type rat intestinal fatty acid binding protein
[1]
  DR/DR LA: 0.90
[2]
  DR/DR LNA: 0.99
[3]
  DR/DR AA: 0.89
[4]
  DR/DR OA: 0.90
[5]
  DR/DR PA: 0.80
